Data from patent US20220251198A1.

Key:
[1] = target: human FcγRI extracellular domain (human) (UniProt P12314); test: SPR (Biacore), FcγR ECD analyte; N=1
[2] = target: human FcγRIIA_131H extracellular domain (human) (UniProt P12318); test: SPR (Biacore), FcγR ECD analyte; N=1
[3] = target: human FcγRIIA_131R extracellular domain (human) (UniProt P12318); test: SPR (Biacore), FcγR ECD analyte; N=1
[4] = target: human FcγRIIIA_158F extracellular domain (human) (UniProt P08637); test: SPR (Biacore), FcγR ECD analyte; N=1
Sequence of human FcγRIIIA_158F extracellular domain (human) (P08637 17-208): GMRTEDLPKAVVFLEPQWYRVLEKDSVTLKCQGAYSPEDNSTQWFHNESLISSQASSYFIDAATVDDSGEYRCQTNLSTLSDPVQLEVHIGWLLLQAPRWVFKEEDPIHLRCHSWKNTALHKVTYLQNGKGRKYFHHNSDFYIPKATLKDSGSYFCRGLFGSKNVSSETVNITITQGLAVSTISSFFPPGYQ

[5] = target: human FcγRIIIA_158V extracellular domain (human) (UniProt P08637); test: SPR (Biacore), FcγR ECD analyte; N=1
Sequence of human FcγRIIIA_158V extracellular domain (human) (P08637 17-208 F176V): as the sequence (P08637 17-208) above, with F160V counted along it

[6] = target: human FcγRIIb extracellular domain (human) (UniProt P31994); test: SPR (Biacore), FcγR ECD analyte; N=1
Sequence of human FcγRIIb extracellular domain (human) (P31994 43-217): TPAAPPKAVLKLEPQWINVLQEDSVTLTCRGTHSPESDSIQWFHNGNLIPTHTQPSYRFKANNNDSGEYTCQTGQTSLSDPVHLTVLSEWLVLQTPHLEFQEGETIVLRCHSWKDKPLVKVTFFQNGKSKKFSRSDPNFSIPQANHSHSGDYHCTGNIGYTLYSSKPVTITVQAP

[7] = target: human FcγRIIA_131H extracellular domain (human) (UniProt P12318); test: SPR at 25 C, antibody captured on Protein A, FcγR ECD analyte, steady state
[8] = target: human FcγRIIA_131R extracellular domain (human) (UniProt P12318); test: as above
[9] = target: human FcγRIIIA_158F extracellular domain (human) (UniProt P08637); test: as above
[10] = target: human FcγRIIIA_158V extracellular domain (human) (UniProt P08637); test: as above

Sequence of human FcγRIIA_131H extracellular domain (human) (P12318 34-217): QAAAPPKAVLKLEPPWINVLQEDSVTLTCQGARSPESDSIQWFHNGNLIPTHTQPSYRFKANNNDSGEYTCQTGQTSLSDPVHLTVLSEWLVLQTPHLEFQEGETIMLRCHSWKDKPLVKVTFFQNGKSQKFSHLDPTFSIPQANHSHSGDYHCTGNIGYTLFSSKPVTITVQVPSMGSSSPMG
Sequence of human FcγRIIA_131R extracellular domain (human) (P12318 34-217 H167R): as the sequence (P12318 34-217) above, with H134R counted along it
Sequence of human FcγRI extracellular domain (human) (P12314 16-292): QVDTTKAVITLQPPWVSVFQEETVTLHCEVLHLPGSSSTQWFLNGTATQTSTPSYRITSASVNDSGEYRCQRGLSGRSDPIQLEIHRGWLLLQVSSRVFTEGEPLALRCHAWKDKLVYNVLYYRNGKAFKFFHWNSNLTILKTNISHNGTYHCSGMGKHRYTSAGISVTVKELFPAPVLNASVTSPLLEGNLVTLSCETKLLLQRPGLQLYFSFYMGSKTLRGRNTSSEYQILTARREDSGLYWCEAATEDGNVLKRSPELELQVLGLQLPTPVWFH

Substance	Kd [1] [nM]	Kd [2] [nM]	Kd [3] [nM]	Kd [4] [nM]	Kd [5] [nM]	Kd [6] [nM]	Kd [7] [nM]	Kd [8] [nM]	Kd [9] [nM]	Kd [10] [nM]
CD200R antibody IgG1 P331S	0.0543	1150	1140	3110	450	4640	–	–	–	–
IgG1 Control Antibody	–	–	–	–	–	–	500	600	1000	–
CD200R antibody IgG1 N325S + L328F	0.0687	2640	60	–	7350	275	–	–	–	–
Human IgG4P control antibody	0.385	5120	2890	–	5470	3310	–	–	–	–
CD200R antibody IgG1 A330S + S267G	0.168	3310	820	10800	1660	4990	–	–	–	–
Hu IgG1 (antibody)	0.0552	710	1030	2590	–	4200	–	–	–	–
CD200R antibody IgG1 A330S + P331S + S267G	0.511	5100	–	9800	2480	4300	–	–	–	–
CD200R antibody IgG1 K322A + S267G	0.0705	5020	660	9990	1650	4430	–	–	–	–
IgG4 PAA Control Antibody	–	–	–	–	–	–	–	–	–	8900
CD200R antibody IgG1 K322A	0.0305	980	820	2580	–	3410	–	–	–	–
CD200R antibody IgG1 S267G	0.131	3130	530	4500	730	3410	–	–	–	–
CD200R antibody IgG1 P331S + S267G	0.142	5200	770	–	2080	4380	–	–	–	–
